# Measurements from patent US20210206851A1 (MacroGenics, published 2021).
# B1: LAG-3 mAb 6 (antibody, V domains shown)
# VH: EVLLQQSGPELVKPGASVKIPCKASGYTFTDYNMDWVKQSHGESLEWIGDINPDNGVTIYNQKFEGKATLTVDKSSSTAYMELRSLTSEDTAVYYCAREADYFYFDYWGQGTTLTVSS
# VL: DIVMTQSHRFMSTSVGDRVSITCKASQDVSSVVAWYQQKPGQSPKLLIFSASYRYTGVPDRFTGSGSGTDFTFTISSVQAADLAVYYCQQHYSTPWTFGGGTKLEIK
# notes: Murine monoclonal antibody
# B2: hLAG-3 mAb 1 (1.4) (constant region not stated) (antibody, V domains shown)
# VH: QVQLVQSGAEVKKPGASVKVSCKASGYTFTNYGMNWVRQAPGQGLEWMGWINTYTGESTYADDFEGRFVFSMDTSASTAYLQISSLKAEDTAVYYCARESLYDYYSMDYWGQGTTVTVSS
# VL: DIVMTQTPLSLSVTPGQPASISCKSSQSLLHSDAKTYLNWLLQKPGQPPERLIYLVSELDSGVPDRFSGSGSGTDFTLKISRVEAEDVGVYYCWQGTHFPYTFGGGTKVEIK
# notes: also called hLAG-3 1 (1.4); humanized hLAG-3 1 (1.4)
# B3: hLAG-3 mAb 1 (1.2), human IgG1 (AA) (antibody, V domains shown)
# VH: QVQLVQSGAEVKKPGASVKVSCKASGYTFTNYGMNWVRQAPGQGLEWMGWINTYTGESTYADDFEGRFVFSMDTSASTAYLQISSLKAEDTAVYYCARESLYDYYSMDYWGQGTTVTVSS
# VL: DIVMTQTPLSLSVTPGQPASISCKSSQSLLHSDGKTYLNWLLQRPGQSPERLIYLVSELDSGVPDRFSGSGSGTDFTLKISRVEAEDVGVYYCWQGTHFPYTFGGGTKVEIKR
# notes: also called hLAG-3 1 (1.2)
# B4: hLAG-3 mAb 1 (2.2), human IgG1 (AA) (antibody, V domains shown)
# VH: QVQLVQSGAEVKKPGASVKVSCKASGYTFTNYGMNWVRQAPGQGLEWMGWINTYTGESTYADDFEGRFVFSMDTSASTAYLQISSLKAEDTAVYFCARESLYDYYSMDYWGQGTTVTVSS
# VL: DIVMTQTPLSLSVTPGQPASISCKSSQSLLHSDGKTYLNWLLQRPGQSPERLIYLVSELDSGVPDRFSGSGSGTDFTLKISRVEAEDVGVYYCWQGTHFPYTFGGGTKVEIKR
# notes: also called hLAG-3 1 (2.2)
# B5: hLAG-3 mAb 1 (1.4), human IgG1 (AA) (antibody)
# heavy: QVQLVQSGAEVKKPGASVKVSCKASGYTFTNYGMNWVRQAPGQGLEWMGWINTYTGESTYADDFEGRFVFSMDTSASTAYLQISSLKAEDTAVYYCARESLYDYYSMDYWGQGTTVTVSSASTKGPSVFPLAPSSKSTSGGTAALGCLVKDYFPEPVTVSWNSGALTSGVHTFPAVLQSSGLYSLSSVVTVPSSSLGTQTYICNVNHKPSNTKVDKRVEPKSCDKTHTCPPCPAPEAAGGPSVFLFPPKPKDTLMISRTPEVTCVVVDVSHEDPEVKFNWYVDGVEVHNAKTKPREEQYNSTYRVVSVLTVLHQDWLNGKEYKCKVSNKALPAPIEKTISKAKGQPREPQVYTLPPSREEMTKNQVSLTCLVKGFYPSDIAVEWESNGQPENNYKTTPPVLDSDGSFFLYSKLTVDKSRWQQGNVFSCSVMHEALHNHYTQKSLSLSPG
# light: DIVMTQTPLSLSVTPGQPASISCKSSQSLLHSDAKTYLNWLLQKPGQPPERLIYLVSELDSGVPDRFSGSGSGTDFTLKISRVEAEDVGVYYCWQGTHFPYTFGGGTKVEIKRTVAAPSVFIFPPSDEQLKSGTASVVCLLNNFYPREAKVQWKVDNALQSGNSQESVTEQDSKDSTYSLSSTLTLSKADYEKHKVYACEVTHQGLSSPVTKSFNRGEC
# notes: also called hLAG-3 mAb 1 (1.4)^c, e
# B6: hLAG-3 mAb 1 (1.1), human IgG1 (AA) (antibody, V domains shown)
# VH: QVQLVQSGAEVKKPGASVKVSCKASGYTFTNYGMNWVRQAPGQGLEWMGWINTYTGESTYADDFEGRFVFSMDTSASTAYLQISSLKAEDTAVYYCARESLYDYYSMDYWGQGTTVTVSS
# VL: DIVMTQTPLSLSVTPGQPASISCKSSQSLLHSDGKTYLNWLLQKPGQSPERLIYLVSELDSGVPDRFSGSGSGTDFTLKISRVEAEDVGVYYCWQGTHFPYTFGGGTKVEIKR
# notes: also called hLAG-3 1 (1.1)
# B7: hLAG-3 mAb 1 (1.4), IgG4 (S228P) (antibody)
# heavy: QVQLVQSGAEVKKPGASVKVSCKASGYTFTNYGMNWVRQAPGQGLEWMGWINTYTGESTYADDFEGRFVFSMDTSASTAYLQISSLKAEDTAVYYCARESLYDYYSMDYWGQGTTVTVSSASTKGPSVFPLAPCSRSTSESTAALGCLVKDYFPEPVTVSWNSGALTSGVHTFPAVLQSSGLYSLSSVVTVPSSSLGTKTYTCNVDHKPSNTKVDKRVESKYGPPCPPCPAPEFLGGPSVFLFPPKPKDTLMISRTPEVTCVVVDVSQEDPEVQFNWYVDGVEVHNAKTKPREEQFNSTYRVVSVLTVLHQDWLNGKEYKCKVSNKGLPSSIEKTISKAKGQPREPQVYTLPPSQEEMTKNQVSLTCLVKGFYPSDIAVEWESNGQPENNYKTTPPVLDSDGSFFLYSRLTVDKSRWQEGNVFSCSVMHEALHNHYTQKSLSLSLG
# light: DIVMTQTPLSLSVTPGQPASISCKSSQSLLHSDAKTYLNWLLQKPGQPPERLIYLVSELDSGVPDRFSGSGSGTDFTLKISRVEAEDVGVYYCWQGTHFPYTFGGGTKVEIKRTVAAPSVFIFPPSDEQLKSGTASVVCLLNNFYPREAKVQWKVDNALQSGNSQESVTEQDSKDSTYSLSSTLTLSKADYEKHKVYACEVTHQGLSSPVTKSFNRGEC
# notes: also called hLAG-3 mAb 1 (1.4)^c, f
# B8: hLAG-3 mAb 6 (1.1) (antibody, V domains shown)
# VH: QVQLVQSGAEVKKPGASVKVSCKASGYTFTDYNMDWVRQAPGQGLEWMGDINPDNGVTIYNQKFEGRVTMTTDTSTSTAYMELRSLRSDDTAVYYCAREADYFYFDYWGQGTTLTVSS
# VL: DIQMTQSPSSLSASVGDRVTITCRASQDVSSVVAWYQQKPGKAPKLLIYSASYRYTGVPSRFSGSGSGTDFTLTISSLQPEDFATYYCQQHYSTPWTFGGGTKLEIK
# notes: also called hLAG-3 6 (1.1); humanized LAG-3 mAb 6
# B9: LAG-3 mAb 3 (antibody, V domains shown)
# VH: EVRLQQSGPELVKPGASVKISCKASGYTFTDYNIHWVRQSHGQSLEWIGYIYPYNGDTGYNQKFKTKATLTVDNSSNTAYMELRSLASEDSAVYYCTRWSRNYFGPWFAYWGQGTLVTVSA
# VL: DIVLTQSPTSLAVSLGQRATISCKASQSVDYDGDSYMNWYQQKPGQPPKLLIYAASNLESGIPARFSGSGSGTDFTLNIHPVEEEDAATYYCQQSSEDPLTFGAGTKLELK
# notes: Murine monoclonal antibody
# B10: LAG-3 mAb 2 (antibody, V domains shown)
# VH: EVQLQQSGPELVKPGASVKISCKTSGYTFTDYNIHWLRQSHGESLEWIGYIYPYSGDIGYNQKFKNRATLTVDNSSSTAYMDLRSLTSEDSAVFYCARWHRNYFGPWFAYWGQGTPVTVSA
# VL: DIVLTQSPASLAVSLGQRATISCKASQSVDYDGESYMNWYQQKPGQPPKLLIYVVSNLESGIPARFSGSGSGTDFTLNIHPVEEEDAATYYCQQSSEDPLTFGAGTKLELK
# notes: Murine monoclonal antibody
# B11: LAG-3 mAb 4 (antibody, V domains shown)
# VH: EVQLHQSGPELVKPGASVKISCKTSGYTFTDYNIHWVKQSHGKSLEWIGYIYPYNGDAGYNQNFKTKATLTVDNSSSTAYMELRSLTSEDSAVYYCARWNMNYFGPWFAYWGQGTLVTVSA
# VL: DIVLTQSPASLAVSLGQRATISCKASQSVDYDGVTYINWYQQKPGQPPKLLIFAASNLESGIPARFSGSGSGTDFTLNIHPVEEEDAATYYCQQSNEDPLTFGAGTKLELK
# notes: Murine monoclonal antibody
# B12: LAG-3 mAb 5 (antibody, V domains shown)
# VH: EVQLQQSGPELVKPGASVKISCKASGYTFTDYNIHWVKQSPGKSLEWIGYIYPYSGDFGYNQKFKSKATLTVDNSSSTAYMDLRSLTSEDSAVFYCARWHRNYFGPWFAYWGQGTLVTVSA
# VL: DIVLTQSPASLAVSLGQRATISCKASQSVDYDGESYMNWYQQKPGQPPKLLIYVVSNLESGIPARFSGSGSGTDFTLNIHPVEEEDAATYYCQQSSEDPLTFGAGTKLELK
# notes: Murine monoclonal antibody
# B13: LAG-3 mAb A (antibody, V domains shown)
# VH: QVQLQQWGAGLLKPSETLSLTCAVYGGSFSDYYWNWIRQPPGKGLEWIGEINHNGNTNSNPSLKSRVTLSLDTSKNQFSLKLRSVTAADTAVYYCAFGYSDYEYNWFDPWGQGTLVTVSS
# VL: EIVLTQSPATLSLSPGERATLSCRASQSISSYLAWYQQKPGQAPRLLIYDASNRATGIPARFSGSGSGTDFTLTISSLEPEDFAVYYCQQRSNWPLTFGQGTNLEIK
# notes: also called 25F7; BMS-986016
# B14: LAG-3 mAb 1 (antibody, V domains shown)
# VH: QIQLVQSGPELKKPGETVKISCKASGYTFRNYGMNWVKQAPGKVLKWMGWINTYTGESTYADDFEGRFAFSLGTSASTAYLQINILKNEDTATYFCARESLYDYYSMDYWGQGTSVTVSS
# VL: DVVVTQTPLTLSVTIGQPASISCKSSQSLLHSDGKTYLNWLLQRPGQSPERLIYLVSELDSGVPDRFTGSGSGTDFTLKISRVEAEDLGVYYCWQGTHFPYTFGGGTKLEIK
# notes: Murine monoclonal antibody; also called murine anti-human antibody LAG-3 mAb 1
# Assays:
# [1] = target: T1, soluble human LAG-3-Fc fusion protein (shLAG-3-Fc) (human, UniProt P18627 23-450, biotinylated in the Daudi cell assay); test: flow cytometry, blocking of biotinylated soluble human LAG-3-Fc binding to MHC class II on Daudi cells
# T1 construct: also called biotinylated-soluble human LAG-3-Fc fusion protein; not shown: Fc portion; detected with goat anti-human Fc gamma
# T1 sequence: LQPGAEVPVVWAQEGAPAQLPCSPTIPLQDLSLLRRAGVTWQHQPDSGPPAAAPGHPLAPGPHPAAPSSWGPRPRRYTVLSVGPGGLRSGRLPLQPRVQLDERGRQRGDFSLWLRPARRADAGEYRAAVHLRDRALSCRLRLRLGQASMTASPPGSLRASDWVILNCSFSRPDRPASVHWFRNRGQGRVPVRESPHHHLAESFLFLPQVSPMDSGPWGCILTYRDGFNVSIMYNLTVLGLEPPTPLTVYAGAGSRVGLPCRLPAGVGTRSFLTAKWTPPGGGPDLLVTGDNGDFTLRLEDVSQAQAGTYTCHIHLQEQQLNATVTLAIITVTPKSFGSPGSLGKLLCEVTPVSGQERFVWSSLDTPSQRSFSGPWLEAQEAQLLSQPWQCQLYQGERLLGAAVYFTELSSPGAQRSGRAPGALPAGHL
# [2] = target: T2, His-tagged soluble human LAG-3 (shLAG-3-His) (human, UniProt P18627 23-450); test: SPR (Biacore); antibody captured on immobilized Fab2 goat-anti-mouse Fc, shLAG-3-His in solution
# T2 construct: also called soluble human LAG-3-His fusion protein; extracellular domain of human LAG-3 fused to a His tag; not shown: His tag
# T2 sequence: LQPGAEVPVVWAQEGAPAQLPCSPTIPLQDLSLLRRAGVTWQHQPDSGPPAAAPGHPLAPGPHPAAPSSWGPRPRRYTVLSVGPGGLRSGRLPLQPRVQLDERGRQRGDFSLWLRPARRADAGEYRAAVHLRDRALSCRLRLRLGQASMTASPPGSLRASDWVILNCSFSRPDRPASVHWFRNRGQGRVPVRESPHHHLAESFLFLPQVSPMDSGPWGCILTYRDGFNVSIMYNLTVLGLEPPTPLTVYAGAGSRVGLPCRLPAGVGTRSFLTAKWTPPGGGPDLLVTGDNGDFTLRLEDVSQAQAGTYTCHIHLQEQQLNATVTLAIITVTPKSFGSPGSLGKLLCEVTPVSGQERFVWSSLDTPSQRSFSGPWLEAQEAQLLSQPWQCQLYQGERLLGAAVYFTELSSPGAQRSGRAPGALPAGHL
# [3] = target: T3, soluble cynomolgus monkey LAG-3 fusion protein (extracellular domain of cynomolgus monkey LAG-3 fused to … (cynomolgus monkey; murine); test: SPR (Biacore); cynomolgus LAG-3 ECD-murine IgG2a fusion captured on Fab2 goat-anti-mouse Fc, antibody in solution
# T3 construct: extracellular domain; also called cynomolgus LAG-3-murine IgG2a fusion protein
# [4] = target: T2, His-tagged soluble human LAG-3 …; test: ELISA, blocking; antibody mixed with soluble human LAG-3-His (0.2 ug/ml), binding to immobilized MHC class II
# [5] = target: T4, soluble human LAG-3 fusion protein (extracellular domain of human LAG-3 fused to murine IgG2a) (human; murine, UniProt P18627 23-450); test: SPR (Biacore); human LAG-3 ECD-murine IgG2a fusion captured on Fab2 goat-anti-mouse Fc, antibody in solution
# T4 construct: also called human LAG-3-murine IgG2a fusion protein; not shown: murine IgG2a
# T4 sequence: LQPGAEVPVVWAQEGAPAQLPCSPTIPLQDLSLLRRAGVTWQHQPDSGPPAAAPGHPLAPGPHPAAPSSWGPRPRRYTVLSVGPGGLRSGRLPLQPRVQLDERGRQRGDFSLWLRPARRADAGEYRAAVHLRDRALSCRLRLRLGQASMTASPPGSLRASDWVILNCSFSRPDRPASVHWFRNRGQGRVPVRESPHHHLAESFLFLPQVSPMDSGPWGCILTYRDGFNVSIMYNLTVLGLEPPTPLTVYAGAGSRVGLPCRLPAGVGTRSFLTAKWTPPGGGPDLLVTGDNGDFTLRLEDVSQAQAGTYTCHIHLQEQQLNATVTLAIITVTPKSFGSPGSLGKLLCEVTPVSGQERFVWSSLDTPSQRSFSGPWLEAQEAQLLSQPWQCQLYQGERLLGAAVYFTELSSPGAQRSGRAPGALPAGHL
# [6] = target: T2, His-tagged soluble human LAG-3 …; test: SPR (Biacore); antibody captured on immobilized Protein A, shLAG-3-His in solution
# [7] = target: T2, His-tagged soluble human LAG-3 …; test: SPR (Biacore); antibody captured on immobilized Fab2 goat anti-human Fc, shLAG-3-His in solution
# [8] = target: T1, soluble human LAG-3-Fc fusion protein …; test: ELISA, blocking; antibody mixed with soluble human LAG-3-Fc (5 ug/mL), binding to immobilized MHC class II
# [9] = target: T1, soluble human LAG-3-Fc fusion protein …; test: flow cytometry, blocking of biotinylated soluble human LAG-3-Fc binding to MHC class II on Daudi cells; remark: listed apart in the source
# [10] = target: T2, His-tagged soluble human LAG-3 …; test: SPR (Biacore); antibody captured on immobilized Protein G, shLAG-3-His in solution
binder,measurement,setting,value
B1,IC50 (read off the curve),[1],~200 ng/mL
same,Kd,[2],0.02 nM
B2,Kd,[3],< 0.53 nM
same,IC50 (read off the curve),[4],~0.3 nM
same,Kd,[5],< 0.29 nM
B3,Kd,[6],0.01 nM
B4,Kd,[6],0.3 nM
B5,Kd,[7],0.04 nM
B6,Kd,[6],0.04 nM
B7,Kd,[7],0.05 nM
B8,Kd,[3],3.7 nM
same,IC50 (read off the curve),[4],~0.3 nM
same,Kd,[5],< 0.1 nM
B9,IC50 (read off the curve),[8],~30 nM
same,IC50 (read off the curve),[9],~3 ng/mL
same,Kd,[2],4.4 nM
B10,IC50 (read off the curve),[9],~3 ng/mL
same,Kd,[2],1.9 nM
B11,IC50 (read off the curve),[9],~3 ng/mL
same,Kd,[2],0.8 nM
B12,IC50 (read off the curve),[8],~30 nM
same,IC50 (read off the curve),[9],~3 ng/mL
same,Kd,[2],0.9 nM
B13,IC50 (read off the curve),[9],~3 ng/mL
same,IC50 (read off the curve),[1],~100 ng/mL
same,IC50 (read off the curve),[4],~0.2 nM
B14,IC50 (read off the curve),[8],~20 nM
same,IC50 (read off the curve),[9],~3 ng/mL
same,IC50 (read off the curve),[1],~100 ng/mL
same,Kd,[10],0.01 nM
same,Kd,[2],0.013 nM
